Laboratory results reported in PMC5915741, “A Viral Suppressor Modulates the Plant Immune Response Early in Infection by Regulating MicroRNA Activity” (mBio, 2018).

T1: 2b (Tomato aspermy virus (TAV), UniProt Q8UYT3 1-95)
T1 sequence: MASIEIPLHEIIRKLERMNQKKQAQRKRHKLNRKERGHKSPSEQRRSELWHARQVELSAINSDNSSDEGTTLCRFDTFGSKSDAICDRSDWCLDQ

T2: p19 (Carnation Italian ringspot virus (CIRV), UniProt Q66104 1-172)
T2 sequence: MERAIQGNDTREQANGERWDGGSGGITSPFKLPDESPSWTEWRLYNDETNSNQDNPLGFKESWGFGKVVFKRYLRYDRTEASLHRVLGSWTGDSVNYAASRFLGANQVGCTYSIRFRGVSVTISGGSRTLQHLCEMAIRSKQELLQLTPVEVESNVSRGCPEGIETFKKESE

B1: NbmiR403b (dsRNA)
RNA 1: UUAGAUUCACGCACAAACUCG
RNA 2: UGUUUGUGCGUGAUUCUGACA
modifications: 5' phosphate on both strands
B2: NbmiR162a (Table 1 name) (dsRNA)
RNA 1: UCGAUAAACCUCUGCAUCCAG
RNA 2: GGAGGCAGCGGUUUAUCGAUC
modifications: 5' phosphate on both strands
B3: AtmiR162 (= NbmiR162b per Table 1) (dsRNA)
RNA 1: UCGAUAAACCUCUGCAUCCAG
RNA 2: GGAGGCAGCGGUUCAUCGAUC
modifications: 5' phosphate on both strands
B4: AtmiR168a (= NbmiR168d,e) (dsRNA)
RNA 1: UCGCUUGGUGCAGGUCGGGAA
RNA 2: CCCGCCUUGCAUCAACUGAAU
modifications: 5' phosphate on both strands
B5: NbmiR403a (dsRNA)
RNA 1: UUAGAUUCACGCACAAACUCG
RNA 2: UGUUUGUGCGUGAAUCUGACA
modifications: 5' phosphate on both strands
B6: gf698 siRNA (dsRNA)
RNA 1: UAGUUCAUCCAUGCCAUGUGU
RNA 2: ACAUGGCAUGGAUGAACUAUA
modifications: 5' phosphate on both strands
B7: AtmiR403 (dsRNA)
RNA 1: UUAGAUUCACGCACAAACUCG
RNA 2: UGUUUUGUGCUUGAAUCUAAUU
modifications: 5' phosphate on both strands
B8: NbmiR168a,b,c (dsRNA)
RNA 1: UCGCUUGGUGCAGGUCGGGAC
RNA 2: CCCGCCUUGCAUCAACUGAAU
modifications: 5' phosphate on both strands
B9: AtmiR168b (dsRNA)
RNA 1: UCGCUUGGUGCAGGUCGGGAA
RNA 2: CCCGUCUUGUAUCAACUGAAU
modifications: 5' phosphate on both strands
B10: Carnation Italian ringspot virus (CIRV) p19 protein (natural protein)
chain: MERAIQGNDTREQANGERWDGGSGGITSPFKLPDESPSWTEWRLYNDETNSNQDNPLGFKESWGFGKVVFKRYLRYDRTEASLHRVLGSWTGDSVNYAASRFLGANQVGCTYSIRFRGVSVTISGGSRTLQHLCEMAIRSKQELLQLTPVEVESNVSRGCPEGIETFKKESE
notes: p19 viral suppressor of RNA silencing of Carnation Italian ringspot virus (CIRV); the p19 open reading frame cloned into pGEX-6P-1; theoretical mass of the monomer 19.479 kDa; GST removed with PreScission protease; also called Tombusvirus p19; source: E. coli BL21(DE3) RIPL, purified (GSTrap, PreScission cleavage, Resource Q anion exchange)

Columns and labels:
[1] = molecular target: T1, 2b; assay: EMSA; settings: protein: recombinant, tags: His-SUMO removed by SUMO protease, chain copies: 2
[2] = molecular target: T2, p19; assay: EMSA; settings: protein: recombinant, tags: GST (pGEX-6P-1) removed by PreScission protease, chain copies: 2
[3] = molecular target: T1, 2b; assay: competition EMSA; KC vs labeled gf698 siRNA, 1.9 nM 2b monomer; settings: protein: recombinant, tags: His-SUMO removed by SUMO protease, chain copies: 2
[4] = molecular target: T2, p19; assay: competition EMSA; KC vs labeled gf698 siRNA, 0.5 nM p19 dimer; settings: protein: recombinant, tags: GST (pGEX-6P-1) removed by PreScission protease, chain copies: 2
[5] = molecular target: the molecule itself; assay: AUC; sedimentation equilibrium (18,000 rpm) and velocity (40,000 rpm), 20°C, CIRV p19 at 1.2 to 13 µM in buffer D; no RNA
[6] = miRNA duplex with mismatches, 3' overhangs
[7] = label: 5'-32P, miRNA duplex with mismatches, 3' overhangs
[8] = miRNA duplex with mismatches, 22 nt star strand

Row | Binder | Kd [1, 6] [nM] | Kd [2, 6] [nM] | Ki [3, 6] [nM] | Kd [2, 7] [nM] | other results
1 | B1 | 0.26 ± 0.03 | 0.37 ± 0.06 | 0.02 ± 0.003 |  | 
2 | B2 |  |  |  | 0.14 ± 0.05 | 
3 | B3 | 0.46 ± 0.06 | 0.07 ± 0.03 | 0.67 ± 0.09 |  | Ki [4, 6]: 0.12 ± 0.05 nM
4 | B4 | 1.24 ± 0.15 | 2.29 ± 0.78 | 12.1 ± 0.7 |  | Ki [4, 6]: 1.59 ± 0.35 nM
5 | B5 | 0.22 ± 0.03 | 0.11 ± 0.02 | 0.01 ± 0.006 |  | 
6 | B6 |  |  |  |  | Ki ([4]; 2 nt 3' overhangs): 0.07 ± 0.03 nM; Kd ([1]; 2 nt 3' overhangs): 0.68 ± 0.15 nM; Kd ([2]; 2 nt 3' overhangs): 0.06 ± 0.04 nM; Ki ([3]; 2 nt 3' overhangs): 0.53 ± 0.08 nM
7 | B7 |  |  |  |  | Ki [4, 8]: 1.09 ± 0.43 nM; Kd [1, 8]: 0.26 ± 0.03 nM; Kd [2, 8]: 1.37 ± 0.29 nM; Ki [3, 8]: 0.05 ± 0.004 nM
8 | B8 |  |  |  | 6.57 ± 1.5 | 
9 | B9 |  |  |  | 4.83 ± 1.57 | 
10 | B10 |  |  |  |  | stoichiometry N [5]: 2
